Experimental findings from publication PMC9654039, “FUS Microphase Separation: Regulation by Nucleic Acid Polymers and DNA Repair Proteins” are described below.

Data set [1] has as its target T1, FUS∆LCD (UniProt P35637 164-526). Put plainly: fluorescence titration (Cy3-protein intensity). The conditions noted are these: apparent Kd; concentration as rNMP (nucleotides), not molecules; Hill fit n 3.07; Buffer, salt, pH and temperature of the fluorescence titrations are not given in the material; concentrations are in nucleotide units. Poly(ADP-ribose) (Kd,app …).

Data set [2] addresses T1, FUS∆LCD. Put plainly: fluorescence titration (Cy3-protein intensity); apparent Kd; concentration as dNMP (nucleotides), not molecules; Hill fit n 1.12; Buffer, salt, pH and temperature of the fluorescence titrations are not given in the material; concentrations are in nucleotide units. Poly(ADP-ribose) (Kd,app). The conditions noted are these: protein: recombinant; tags: Cy3 label (sulfo-cyanine 3 NHS ester); blunt; one-nucleotide gap between strands 1 and 2, opposite G of strand 3.

T1 sequence (P35637 164-526): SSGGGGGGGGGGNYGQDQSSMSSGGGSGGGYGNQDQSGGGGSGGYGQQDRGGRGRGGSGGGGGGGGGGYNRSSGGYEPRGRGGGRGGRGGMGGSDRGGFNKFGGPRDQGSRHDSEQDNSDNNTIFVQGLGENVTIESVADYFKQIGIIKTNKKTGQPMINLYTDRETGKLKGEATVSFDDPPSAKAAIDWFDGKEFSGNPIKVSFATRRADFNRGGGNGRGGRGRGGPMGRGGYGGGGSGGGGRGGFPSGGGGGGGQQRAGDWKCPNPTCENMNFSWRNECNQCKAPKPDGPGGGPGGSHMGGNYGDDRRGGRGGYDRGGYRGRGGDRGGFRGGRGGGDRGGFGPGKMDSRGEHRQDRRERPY

On to RNA (~3000 nt luciferase mRNA), for which the Kd in data set [1] was 0.183 µM.

B1: dsDNA (30 bp, one-nucleotide gap) (dsDNA)
DNA 1: GGGTTGGTTTGCG
DNA 2: ATTCACAGTTCTCCGC
DNA 3: GCGGAGAACTGTGAATGCGCAAACCAACCC
modifications: 5'-phosphate on S4 (downstream strand); 3'-OH on S3
As to B1, in data set [2], the Kd turned out to be 2.56 ± 0.159 µM.
